Results published in the nanobody polyreactivity screen of Harvey et al. (2022).

Assay: yeast display, Sf9 membrane polyspecificity reagent, FACS + sequencing; frameworks hold sequencing errors
Summary of the method: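 Sorting gates, low and high (top ~1%), were placed on anti-HA fluorescence to track expression and on streptavidin fluorescence to track reagent binding. A clone's polyreactivity label is taken from the gate it came out of. The reagent was 10% biotinylated, detergent-solubilized Sf9 membrane, applied for 1 hour at 4 °C to galactose-induced yeast display cells.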

| Sequence | polyreactivity (PSR sort gate) |
| --- | --- |
| QVQLVESGGGLVQAGGSLRLSCAASGRTFDLYDMGWYRQAPGKERELVARISYNGGITYYADSVKGRFTISRDNAKNTVYLQMNSLKPEDTAVYYCDGRYRPHFGPLFEYDYWGQGTQVTVSS | low polyreactivity |
| QVQLVESGGGLVQAGGSLRLSCAASGRTFDPYAMGWYRQAPGKERELVASISRGGSTYADSVKGRFTISRDNAKNTVFLQMNSLKPEDTAVYYCNTSLYTEGDAMDYWGQGTQVTVSS | low polyreactivity |
| QVQLVESGGGLVQAGGSLRLSCAASGRTFDRNARGWYRQAPGKEREVVARITIDGSTNYADSVKGRFTISRDNAKNTVYLQMNSLKPEETAVYYCATDQLSLSWYFRPYDYCYWGQVTQVTVSS | high polyreactivity |
| QVQLVESGGGLVQAGGSLRLSCAASGRTFDRYAMGWARQAPGKERELVATISRSGGSTYYADSVKGRFTISRDNAKNTVYLQMNSLKPEDSAVYYCAARQRTTSDGWRDSWGQGTQVTVSS | high polyreactivity |
| QVQLVESGGGLVQAGGSLRLSCAASGRTFDSNAMGLYRQAPGKERELVAAISYGGGTTHYADSVKGRFTISRDNAKNTVYLQMNSLKPEDTAVYYCAADPEHQWESVTIGEYDYWGQGTQVTVSS | low polyreactivity |
| QVQLVESGGGLVQAGGSLRLSCAASGRTFDSNAMGWYRQAPGKERELVAGISESGGSTYYADSVKGRFTISRDNAKNTVYLQMNSLKPEDTAVYYCAYSGITVYYHRAVDFIVSYDYWGQGTQVTVSS | low polyreactivity |
| QVQLVESGGGLVQAGGSLRLSCAASGRTFDSYTMGWYRQAPGKERELVADITFTGGSTYYADSVKGRFTISRDNAKNTVYLQMNSLKPDDTAVYYCNADREYKWYFRYDYWGQGTQVTVSS | low polyreactivity |
| QVQLVESGGGLVQAGGSLRLSCAASGRTFDTNAMGWYRQAPGKERELVAVITARGGNTSYADSVKGRFTISRENAKNTVSLQMNSLKPEDTAVYYCAARVYRAPWTYEEGNYWGQGTQVTVSS | low polyreactivity |
| QVQLVESGGGLVQAGGSLRLSCAASGRTFDVYAMGWYRQAPGKERELVATISYRSARTYYADSVKGRFTISRDNAKNTVYLQMNSLKPEDTAVYYCAAYFETWHGVGYWGQGTQVTVSS | high polyreactivity |
| QVQLVESGGGLVQAGGSLRLSCAASGRTFDVYAMGWYRQAPGKERELVAVIRGRAGSTYYADSVKGRFTISRDNAKNTVYLQMNSLKPEDTAVYYCAAAKYVRRGLRAWRGDEYDYWGQGTQVTVSS | high polyreactivity |
| QVQLVESGGGLVQAGGSLRLSCAASGRTFDVYAMGWYRQPPGKESELVATISYRSARTYSADSVKGRFTISRDNAKNTVYLQMNSLKPEDTAVYYCAARVGARVSQPRRHGRFNYWGQGTQVTVSS | high polyreactivity |
| QVQLVESGGGLVQAGGSLRLSCAASGRTFDWYVMGWYRQAPGKERELVATITRDGSTNYADSVKGRFTISRDNAKNTVYLQMNSLKPEDTAVYYCAATVPPLVGYDYWGQGTQVTVSS | low polyreactivity |
| QVQLVESGGGLVQAGGSLRLSCAASGRTFEDNAMGWYRQAPGKERELVAAISSDGSTNYADSVKGRFTISRDNAKNTVYLQMNSLKPEDTAVYYCNATVYWPYDWRTSDYWGQGTQVTVSS | low polyreactivity |
| QVQLVESGGGLVQAGGSLRLSCAASGRTFEGYAMGWYRQAPGKERELVAAISGSSGSTYYADSVKGRFTISRDNAKNTVYLQMNSLKPEDTAVYYCNADYDWPGGSDYWGQGTQVTVSS | low polyreactivity |
| QVQLVESGGGLVQAGGSLRLSCAASGRTFEHYSMGWYRQAPGKEREFVAVIDSSDGSTYYADSVKGRFTISRDNAKNTVYLQMNSLKPEDTAVYYCLGGYYYLQYDYWGQGTQVTVSS | low polyreactivity |
| QVQLVESGGGLVQAGGSLRLSCAASGRTFEHYVMGWYRQAPGKERELVAAISNSGDTTFYADSVKGRFTISRDNAKNTVYFQMNSLKPEDTAVYYCNADSYWHWGEWLYAPYDYWGQGTQVTVSS | low polyreactivity |
| QVQLVESGGGLVQAGGSLRLSCAASGRTFEINAMGWYRQAPGKERELVAAITVSGGSTYYADSVKGRFTISRDNAKNTVYLQMNSLKPEDTAVYYCAVEIDYGQGKEVNSWGQGTQVTVSS | low polyreactivity |
| QVQLVESGGGLVQAGGSLRLSCAASGRTFENYAMGWYRQAPGKERELVAAISKSGGSTYYADSVKGRFTISRDNAKNTVYLQMNSLKPEDTAVYYCAARLPGYYGIGDYWGQGTQVTVSS | high polyreactivity |
| QVQLVESGGGLVQAGGSLRLSCAASGRTFERYAMGWYRQAPGKERELVAAISSGGSTNYADSVKGRFTISRDNAKNTVYLQMNSLKPEDTAVYYCNVDWAVKDPSYVSQGEGDYWGQGTQVTVSS | low polyreactivity |
| QVQLVESGGGLVQAGGSLRLSCAASGRTFERYAMGWYRQAPGKERELVAAITSGGSTYYADSVKGRFTISRDNAKNTVYLQMNSLKPEDTAVYYCATSNWWGYDYWGQGTQVTVSS | high polyreactivity |
| QVQLVESGGGLVQAGGSLRLSCAASGRTFETNAMGWYRQAPGKERELVAAISRSGGSTRYADSVKGRFTISRDNAKNTVYLQMNSLKPEDTAVYYCAAETWYRGYKFDYWGQGTQVTVSS | high polyreactivity |
| QVQLVESGGGLVQAGGSLRLSCAASGRTFEWYALGWYRQAPGKERELVAAIRSGGGTNYADSVKGRFTISPDNAKNTVYLQMNSLKPEDTAVYYCAKEWAGGLYDYWGQGTQVTVTS | low polyreactivity |

| Sequence | polyreactivity (PSR sort gate) |
| --- | --- |
| QVQLVESGGGLVQAGGSLRLSCAASGRTFFDYAMGWYRQAPGKERELVAAINWSGGRTYYADSVKGRFTISRDNAKNTVYLQMNTLKPEDTAVYYCAKPFSSNSWSHGYWGQGTQVTVSS | low polyreactivity |
| QVQLVESGGGLVQAGGSLRLSCAASGRTFFDYTMGWYRPAPGKERELVAAITGGDGSTYYADSVKGRFTISRDNAKNTVYLQMNSLKPEDTAVYYCAASVWYNPMDYWGQVTQVTVSS | low polyreactivity |
| QVQLVESGGGLVQAGGSLRLSCAASGRTFFEYAMGWYRQAPGKEMDLVAIITNGATTNYADSVKGRFTISRDNAKNTVYLQMNSLKPEDTAVYYCAVAKWQPRRRKYYYWGQGTQVTVSS | high polyreactivity |
| QVQLVESGGGLVQAGGSLRLSCAASGRTFFGYAMGWYRQAPGKERELVATISGSGASTYYADSVKGRFTISRDNAKNTVYLQMNSLKPEDTAVYYCAARYVTTRHSRYYYWGQGTQVTVSS | high polyreactivity |
| QVQLVESGGGLVQAGGSLRLSCAASGRTFFIYAMGWYRQAPGKERELVAAIRWRGGSTYYADSVKGRFTISRDNAKNTVYLQMNSLKPEDTAVYYCAASTRQARYEDYYWGQGTQVTVSS | high polyreactivity |
| QVQLVESGGGLVQAGGSLRLSCAASGRTFFIYAMGWYRQAPGKERELVAAISNGGSTNYADSVKGRFTISRDNAKNPVYLQLNSLKPEDTAVYYCAAQYIGNLRGVFHYEFDWGQGTQVSVSS | high polyreactivity |
| QVQLVESGGGLVQAGGSLRLSCAASGRTFFLNTMGWYRQAPGKERELGAAINWSDGGTYYADSVKGRFTISRDIAKNTVYLQMNSLKPEDTAVYYCAADVYWYYGAPELWYRFDYWGQGTQVTVSS | low polyreactivity |
| QVQLVESGGGLVQAGGSLRLSCAASGRTFFMYAMGRYRQAPGKERELVAAISWGGVSTYYADSVKGRFTISRDNAKNTVYLQMNSLKPEDTAVYYCNAEYYYPRGRYWYDYWGQGTQVTVSS | high polyreactivity |
| QVQLVESGGGLVQAGGSLRLSCAASGRTFFPNAMGWSRQAPGKERELVASITSRGGGTYYADSVKGRFTISRDNAKKTVYLQMNSLKPEDTAVYYCAADRYYFSPGYNWWSEGYDYWGQGTQVTVSS | low polyreactivity |
| QVQLVESGGGLVQAGGSLRLSCAASGRTFFPNAMGWYRPAPAKERELVAAITNGDSTHYADSVKGRFTISRDNAKNTVYLQMNSLKPEDTAVYYCAAEDHYEGYGGYYWGQGTQVTVSS | low polyreactivity |
| QVQLVESGGGLVQAGGSLRLSCAASGRTFFRNAMGWDRQEPGSERELVAGISRSGGSTYYADSVKGRFTISRDNAKNTGYLQMNSLKPEDTAVYYCAAALYPYPGYEYWGQGTQVTVSS | high polyreactivity |
| QVQLVESGGGLVQAGGSLRLSCAASGRTFFRNAMGWYRQAPGKERELVAAISSSGGSTYADSVKGRFTISRDNAKNTVYLQMNSLKPEDTAVYYCAATVRGKRSTYDYWGQGTQVTVSS | high polyreactivity |
| QVQLVESGGGLVQAGGSLRLSCAASGRTFFRYAMGWYRQAPGKERELVAAITRGGSTNYADSVKGRFTISRDNAKNTVYLQMNSLKPEDTAVYYCAKTTFSYRGHYYWGQGTQVTVSS | high polyreactivity |
| QVQLVESGGGLVQAGGSLRLSCAASGRTFFSNAMGWYRPAPGKERELVAAISNGDNTYYADSVKGRFTISRDNAKNTVYLQMNSLKPEDTAVYYCAADQYWSWIYYPVVEYDYWGQGTQVTVSS | low polyreactivity |
| QVQLVESGGGLVQAGGSLRLSCAASGRTFFSYAMGWYRQAPGKEMELVAAISGSGGSTYYADSVKGRFTISRDNAKNTVYLQMNSLKPEDTAVYYCNAYQTTRGLDYWGQGTQVTVSS | low polyreactivity |
| QVQLVESGGGLVQAGGSLRLSCAASGRTFFVNAMGWYRQAPGKERELVATITFSGDSTYYADSVKGRFTISRDNAKNTVYLQMNSLKPEDTAVYYCAVRWPSARIPVKLDYWGQGTQVTVSS | high polyreactivity |
| QVQLVESGGGLVQAGGSLRLSCAASGRTFFVYAMGWYRQAPGKERELVASIRWRGSTYYADSVKGRFTISRDNAKNTVYLKMNSLKPEDTAVYYCAARYPYELGFDYWGQGTQVTVSS | low polyreactivity |
| QVQLVESGGGLVQAGGSLRLSCAASGRTFFVYAMGWYRQAPGKERELVASITLSRGSTYYADSVKGRFTISRDNAKNTCYLQMNSLKPEDTAVYYCSKGWSRDNDREREDEYWGQGTQVTVSS | low polyreactivity |
| QVQLVESGGGLVQAGGSLRLSCAASGRTFFWYAMGWYRQAPGKEREFVAAITWRTGSTYYADSVKGRFTISRDNAKNTVYLQMNSLKPEDTAVYYCAAEYPWSYATYYYWGQGTQVTVSS | high polyreactivity |
| QVQLVESGGGLVQAGGSLRLSCAASGRTFFYYAMGWYRQAPGKERELFATITKRGGSTYYADSVKGRFTISRDNAKNTVYLQMNSLKPEDTAVYYCAATYYRQGRRYLGYDYWGQGTQVTVSS | high polyreactivity |
| QVQLVESGGGLVQAGGSLRLSCAASGRTFFYYAMGWYRQAPGKERELVAAISTNGGSTYYADSVKGRFTISRDNAKNTVYLQMNSMKPDDTAVYYCNTYAKPHRSGGGLGGHYYWGQGTQVTVSS | low polyreactivity |
